Results taken from paper PMC5430726.

Legend:
[1] = target: Grb2 C-terminal SH3 domain (SH3C), residues 155-217 (mouse) (UniProt Q60631); experiment: ITC; free Grb2 SH3C in the cell (20 uM for the peptide, 40 uM for Vav) titrated with 280 uM SLP65 peptide or 600 uM Vav SH3N; 20 mM sodium phosphate, 100 mM NaCl, pH 6.0, 25 °C; one-site binding model
[2] = target: Grb2 SH3C-SLP65 peptide binary complex (formed before Vav SH3N was added) (mouse) (UniProt Q60631); experiment: ITC; Vav SH3N titrated into the preformed Grb2 SH3C-SLP65 peptide binary complex (gives Complex 2, trimeric); 20 mM sodium phosphate, 100 mM NaCl, pH 6.0, 25 °C; Kd called approximate
Grb2 SH3C-SLP65 peptide binary complex (formed before Vav SH3N was added) (mouse), sequence (Q60631 155-217, one chain of several): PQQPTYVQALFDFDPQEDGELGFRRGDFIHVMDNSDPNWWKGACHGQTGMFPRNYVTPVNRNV

Grb2 C-terminal SH3 domain (SH3C), residues 155-217 (mouse), sequence (Q60631 155-217): as the sequence (Q60631 155-217, one chain of several) above

Substance: Vav N-terminal SH3 domain (SH3N), residues 583-660 (from UniProt Q8VDU4 583-660) (domain or fragment)
- Kd [1]: 4.5 µM
- dH [1]: -3.15 kcal/mol
- stoichiometry N [1]: 0.91
- Kd [2]: 11.5 µM
- dH [2]: -0.54 kcal/mol
- stoichiometry N [2]: 1.1
